Source: patent publication US20260166158A1, “HSP90-BINDING CONJUGATES AND FORMULATIONS THEREOF” (Fusion Pharmaceuticals Inc., priority 2019, published 2026)

System: NCI-H460 tumor-bearing mice (lung cancer)
Test: Biodistribution: lutetium accumulation in tumor, plasma and healthy tissues by ICP-MS
Assay type: in vivo
Details: for Kidney uptake, % ID/g 24 h / Liver uptake, % ID/g 24 h / Plasma, % ID/g 24 h / Tumor uptake, % ID/g, 24 h: second table
Experimental: Lutetium accumulation was measured in tumor, plasma and healthy tissues of NCI-H460 tumor-bearing mice (lung cancer). NCJ-H460 tumor bearing mice were dosed with 0.5 mg/kg of lutetium conjugates. At the time points indicated, mice were sacrificed and tumor, liver, kidneys and plasma were taken. All tissues were analyzed for lutetium content by ICP-MS, and lutetium uptake in % ID/g determined by the following equation: […]
Biodistribution at 24 h and Tumor/Kidney ratio (T/K), Tumor/Liver ratio (T/L), Tumor/Plasma ratio (T/P) are give in the table below.

Row | Compound | T/K (Tumor/Kidney ratio) (24 h) | T/L (Tumor/Liver ratio) (24 h) | T/P (Tumor/Plasma ratio) (24 h) | Kidney uptake, % ID/g 24 h (kidney, 24 h) [% ID/g] | Liver uptake, % ID/g 24 h (liver, 24 h) [% ID/g] | Plasma, % ID/g 24 h (plasma, 24 h) [% ID/g] | Tumor uptake, % ID/g, 24 h (24 h) [% ID/g] | % ID/g uptake, H460 tumor, 24 h (0.5 mg/kg lutetium conjugate, H460 tumor, 24 h) [% ID/g] | % ID/g uptake, H460 tumor, 72 h (0.5 mg/kg lutetium conjugate, H460 tumor, 72 h) [% ID/g] | % ID/g uptake, Kidney, 24 h (0.5 mg/kg lutetium conjugate, kidney, 24 h) [% ID/g] | % ID/g uptake, Kidney, 72 h (0.5 mg/kg lutetium conjugate, kidney, 72 h) [% ID/g] | % ID/g uptake, Liver, 24 h (0.5 mg/kg lutetium conjugate, liver, 24 h) [% ID/g] | % ID/g uptake, Liver, 72 h (0.5 mg/kg lutetium conjugate, liver, 72 h) [% ID/g] | % ID/g uptake, Plasma, 24 h (0.5 mg/kg lutetium conjugate, plasma, 24 h) [% ID/g] | % ID/g uptake, Plasma, 72 h (0.5 mg/kg lutetium conjugate, plasma, 72 h) [% ID/g]
1 | CCNC(=O)c1nnc(-c2cc(C(C)C)c(O)cc2O)n1-c1ccc(CN2CCN(C(=O)C[C@H](NC(=O)CCNC(=O)[C@H](CO)NC(=O)[C@H](CO)NC(=O)[C@H](CO)NC(=O)CC[C@H](C(=O)O)N3CCN4CCN5CCN(CC3)CC(=O)[O][Lu]([O]C(=O)C5)[O]C(=O)C4)C(=O)N[C@H](C)C(=O)N3CCN(Cc4ccc(-n5c(C(=O)NCC)nnc5-c5cc(C(C)C)c(O)cc5O)cc4)CC3)CC2)cc1 [CMP44] | 3.28 | 2.34 | 2.47 | 1.34 | 1.88 | 1.78 | 4.39 |  |  |  |  |  |  |  | 
2 | CCNC(=O)c1nnc(-c2cc(C(C)C)c(O)cc2O)n1-c1ccc(OC2CCN(C(=O)CCNC(=O)[C@@H](CCC(=O)N3CCC(Oc4ccc(-n5c(C(=O)NCC)nnc5-c5cc(C(C)C)c(O)cc5O)cc4)CC3)NC(=O)CCOCCOCCOCCOCCOCCOCCOCCOCCOCCOCCOCCOCCNC(=O)CN3CCN4CCN5CCN(CC3)CC(=O)[O][Lu]([O]C(=O)C4)[O]C(=O)C5)CC2)cc1 [CMP36] | 0.99 | 0.41 | 7.34 | 3.36 | 8.16 | 0.45 | 3.32 |  |  |  |  |  |  |  | 
3 | CCNC(=O)c1nnc(-c2cc(C(C)C)c(O)cc2O)n1-c1ccc(C2CN(C(=O)CCOCCOCCOCCOCCOCCOCCOCCOCCOCCOCCOCCOCCNC(=O)CN3CCN4CCN5CCN(CC3)CC(=O)[O][Lu]([O]C(=O)C4)[O]C(=O)C5)C2)cc1 [CMP32] | 2.15 | 5.26 | 6.81 | 1.17 | 0.48 | 0.37 | 2.52 |  |  |  |  |  |  |  | 
4 | CC(C)c1cc(-c2nnc(O)n2-c2ccc(OC3CCN(C(=O)CCOCCOCCOCCOCCNC(=O)CN4CCN5CCN6CCN(CC4)CC(=O)[O][Lu]([O]C(=O)C5)[O]C(=O)C6)CC3)cc2)c(O)cc1O [CMP40] | 5.08 | 62.28 | 29.23 | 0.14 | 0.01 | 0.02 | 0.71 |  |  |  |  |  |  |  | 
5 | CCNC(=O)c1nnc(-c2cc(C(C)C)c(O)cc2O)n1-c1ccc(CN2CCN(C(=O)CCOCCOCCOCCOCCNC(=O)CN3CCN4CCN5CCN6CC(=O)O[C]6(C3)[Lu]([O]C(=O)C4)[O]C(=O)C5)CC2)cc1 (stereo not shown) [CMP1] | 1.28 | 1.92 | 7.68 | 0.91 | 0.607 | 0.152 | 1.167 |  |  |  |  |  |  |  | 
6 | CCNC(=O)c1nnc(-c2cc(C(C)C)c(O)cc2O)n1-c1ccc(CC2CCN(C(=O)C[C@H](NC(=O)CC[C@H](C(=O)O)N3CCN4CCN5CCN(CC3)CC(=O)[O][Lu]([O]C(=O)C5)[O]C(=O)C4)C(=O)N[C@H](C)C(=O)N3CCC(Cc4ccc(-n5c(C(=O)NCC)nnc5-c5cc(C(C)C)c(O)cc5O)cc4)CC3)CC2)cc1 [CMP28] | 0.90 | 0.79 | 1.13 | 8.90 | 10.10 | 7.11 | 8.01 |  |  |  |  |  |  |  | 
7 | CCNC(=O)c1nnc(-c2cc(C(C)C)c(O)cc2O)n1-c1ccc(OC2CCN(C(=O)CCOCCOCCOCCOCCNC(=O)CN3CCN4CCN5CCN(CC3)CC(=O)[O][Lu]([O]C(=O)C4)[O]C(=O)C5)CC2)cc1 [CMP39] | 3.63 | 3.67 | 4.25 | 0.48 | 0.47 | 0.41 | 1.74 |  |  |  |  |  |  |  | 
8 | CCNC(=O)c1nnc(-c2cc(C(C)C)c(O)cc2O)n1-c1ccc(CC2CCN(C(=O)CCOCCOCCOCCOCCNC(=O)[C@H](CCCCNC(=O)CCCc3ccc(I)cc3)NC(=O)CN(CC)CCN3CCN4CCN(C)CC(=O)[O][Lu]([O]C(=O)C4)[O]C(=O)C3)CC2)cc1 [CMP4] | 2.53 | 3.55 | 0.87 | 3.24 | 2.31 | 9.48 | 8.21 |  |  |  |  |  |  |  | 
9 | CCNC(=O)c1nnc(-c2cc(C(C)C)c(O)cc2O)n1-c1ccc2c(ccn2CCC2CCN(C(=O)CCNC(=O)[C@@H](CCC(=O)O)NC(=O)[C@@H](CCC(=O)O)NC(=O)[C@@H](CCC(=O)O)NC(=O)COCCOCCNC(=O)[C@H](CCCCNC(=O)CC[C@H](C(=O)O)N3CCN4CCN5CCN(CC3)CC(=O)[O][Lu]([O]C(=O)C5)[O]C(=O)C4)NC(=O)CCCc3ccc(I)cc3)CC2)c1 [T7] |  |  |  |  |  |  |  | 7.54 | 4.05 | 24.70 | 13.10 | 1.88 | 1.01 | 4.71 | 0.42
10 | CC(C)c1cc(-c2nnc(O)n2-c2ccc(OC3CCN(C(=O)CCOCCOCCOCCOCCOCCOCCOCCOCCOCCOCCOCCOCCNC(=O)CN4CCN5CCN6CCN(CC4)CC(=O)[O][Lu]([O]C(=O)C5)[O]C(=O)C6)CC3)cc2)c(O)cc1O [CMP42] | 2.23 | 9.89 | 26.76 | 0.26 | 0.06 | 0.02 | 0.57 |  |  |  |  |  |  |  | 
11 | CCNC(=O)c1nnc(-c2cc(C(C)C)c(O)cc2O)n1-c1ccc(CC2CCN(C(=O)CCOCC(COCCC(=O)N3CCC(Cc4ccc(-n5c(C(=O)NCC)nnc5-c5cc(C(C)C)c(O)cc5O)cc4)CC3)NC(=O)CC[C@H](C(=O)O)N3CCN4CCN5CCN(CC3)CC(=O)[O][Lu]([O]C(=O)C5)[O]C(=O)C4)CC2)cc1 [CMP8] | 2.01 | 1.67 | 4.01 | 2.91 | 3.50 | 1.46 | 5.86 |  |  |  |  |  |  |  | 
12 | CCNC(=O)c1nnc(-c2cc(C(C)C)c(O)cc2O)n1-c1ccc(OC2CCN(C(=O)CCOCCOCCOCCOCCNC(=O)CC[C@@H](C(=O)O)N(CC)CCN3CCN4CCN(C)CC(=O)[O][Lu]([O]C(=O)C4)[O]C(=O)C3)CC2)cc1 [CMP2] | 2.12 | 1.98 | 2.51 | 0.438 | 0.469 | 0.369 | 0.927 |  |  |  |  |  |  |  | 
